Data: paper PMC7442622, “A functionally neutral single chain antibody to measure beta‐1 integrin uptake and recycling” (Traffic (Copenhagen, Denmark), 2020)

Target: T1, β1 integrin (Homo sapiens, UniProt P05556)
T1 construct: β1 integrin (integrin beta-1), endogenous on the surface of H1975 and hTERT-RPE1 cells; On cells β1 integrin stands in αβ heterodimers; also called beta‐1 integrin; endogenous β1 integrin; source: endogenous, on H1975 cells; endogenous, on hTERT‐RPE1 cells
Assay: ELISA; cell-based ELISA binding isotherm on H1975 cells seeded on gelatin- and fibronectin-coated 96-well plates; antibody dilutions in PBS4+ (1 mM MgCl2, 1 mM CaCl2, 5 mM glucose, 1% BSA), 30 minutes at 4°C; KD as the concentration at half-maximal binding; n = 4
Details: one partner purified

T1 sequence (P05556 21-798): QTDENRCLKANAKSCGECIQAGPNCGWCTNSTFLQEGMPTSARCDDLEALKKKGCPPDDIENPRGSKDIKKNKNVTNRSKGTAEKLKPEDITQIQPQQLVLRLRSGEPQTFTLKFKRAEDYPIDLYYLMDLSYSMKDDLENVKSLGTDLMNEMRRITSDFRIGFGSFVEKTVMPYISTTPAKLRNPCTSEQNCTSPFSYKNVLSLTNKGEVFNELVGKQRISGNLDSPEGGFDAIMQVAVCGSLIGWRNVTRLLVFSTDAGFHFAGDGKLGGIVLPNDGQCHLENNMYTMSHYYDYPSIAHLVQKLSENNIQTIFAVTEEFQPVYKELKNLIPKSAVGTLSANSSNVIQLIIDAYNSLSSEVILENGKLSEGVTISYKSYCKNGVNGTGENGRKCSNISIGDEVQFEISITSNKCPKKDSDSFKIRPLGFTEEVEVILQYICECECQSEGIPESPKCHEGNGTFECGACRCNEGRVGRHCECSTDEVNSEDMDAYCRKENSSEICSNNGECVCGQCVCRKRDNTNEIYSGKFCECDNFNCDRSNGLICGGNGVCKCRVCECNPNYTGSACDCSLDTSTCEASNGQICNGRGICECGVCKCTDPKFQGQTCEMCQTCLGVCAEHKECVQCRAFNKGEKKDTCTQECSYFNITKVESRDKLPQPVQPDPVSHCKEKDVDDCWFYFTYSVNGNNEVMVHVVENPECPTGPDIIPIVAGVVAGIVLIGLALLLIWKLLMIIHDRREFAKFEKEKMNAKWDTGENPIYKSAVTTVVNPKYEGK

B1: MBP‐scFv^K20 (scFv, V domains shown)
VH: QVQLQESGTELVRPGASVKLSCKASGYTFTDYYISWVKQRPGQGLEWIARIYPGSGNTFYNEKFKGKATLTAETSSNTAYMQLSSLTSEDSAVYFCAIYYGSGDYWGQGTTVTVSS
VL: DIQLTQSPSSLSASLGGKVTITCKASQDINKYIAWYQHEPGKGPRLLIRYTSKLESGIPSRFSGSGSGRDYSFSISNLEPEDIATYYCLQYYNLWTFGGGTKLEIK
notes: VH of mouse mAb K20; flexible linker, 3x repeat of GGGGS; VL of mouse mAb K20; 71 kDa fusion; a TEV site lies between MBP and the scFv; monovalent; also called MBP‐fused scFv^K20; anti‐β1 integrin scFv^K20; source: High Five insect cells, baculovirus, secreted; purified (IMAC, SEC peak 2); also as culture media containing secreted scFv^K20; not shown: His6, N-terminal, kept; MBP, N-terminal, …
B1 showed a Kd of 6.54 ± 1.34 nM.

B2: mouse monoclonal anti‐β1 integrin antibody mAb K20 (antibody, V domains shown)
VH: B1 VH
VL: B1 VL
notes: VH of mAb K20; constant region of the heavy chain of a mouse IgG; VL of mAb K20; constant region of the light chain of a mouse antibody; Bivalent IgG; also called mAb K20 IgG; parent mAb K20; source: bought: Beckman Coulter; copies: 2 + 2
Binder B2 has a Kd of 1.2 ± 0.14 nM.
